Reference: the DeepSol protein solubility set

assay: soluble on expression in E. coli; label from the status in PepcDB or PDB records

Sequence	soluble on expression in E. coli
MNFIFDIDGTICFDGCSIDSSIKQRLFKLRQANHNVIFASARPIRDLLPVIPEFADDTLIGGNGSIISKNGQIEIVSVINEHDISLIKKIIKKYQLSYIIDDKFNYASNLDSNNELYQRIDPDGKAQSLDMDEIRNPIKAILLNIDNKDFDMIAHQLVSQSHGIELIRHYSESYIDVTARGVDKYTTIQYILGTNSDYIAFGNDHNDVHMLEHASQGYFVTNQFIEHTSFFKNKNITVIDDTIYAICEVLDRYL	not soluble
MNHDIPALALGPQGEVMAHAIDACVHCGFCLPACPTYALLGDEMDSPRGRIVLMKEVLEGSLELEDAAPHLDRCLGCQGCVTACPSGVPYGELITSFRGWSEPQRERTPLDRAKRYAILKALPAPKLFSVAARVGQFAKPLAPALPAALKAPLDLLPEHVPAMQPQPRVTPARGQRRGRVAFLAGCAQQALTPNFNAATLRVLSRNGIEVVIPEGQGCCGAAALHTGARDEALRLVRANLAAFNPDEYDAILSNAAGCGAGLKEYPVVLHGLPDEAQAQAFAAKVQDISEYLAGLLRDGELAPLMPTREPVKVAYHDACHLAHAQGVRSAPRELLRAIPGVTLTEIPEGDLCCGSAGTYNLEQPELANQLGQRKAKNILGTQPDLIASGNIGCHTQIQSHVRRQGSPVPVMHTVEVLDLAYRGELLEHHHHHH	not soluble
MNIAALLSGGVDSSVVVHLLCEQGYKPTLFYIKIGMDGAEYMDCSAEEDIEMSTAIARKYGLSLEVVDLHKEYWENVAAYAIDKIKKGLTPNPDVMCNKLIKFGCFEQQVGKNFDFTATGHYATTIRQDGKTWLGTAKDPVKDQTDFLAQIDYLQVSKLMFPIGGLMKQEVREIASRAGLPSARRKDSQGICFLGKINYNDFVRRFLGEREGAIIELETGKKVGTHRGYWFHTIGQRKGLGLSGGPWFVIKKDVEENIIYVSHGYGVETQFGSEFRINDFHFITENPWKDAGKEIDITFKIRHTPEFTKGKLVQEEGGQFRILSSEKLQGIAPGQFGVIYDEEAGICVGSGEITRLEHHHHHH	soluble
MNIDTKYHGTVAVNEQDIVHFPHGLPGFADEKRFVLLPLADTPFVILQSVETPALGFVLIEPFSYFPTYEFELDEATVEQLDIESERDVAVYVILTVADPFHETTANLQAPVVINARKRFGKQVILANTPYKTKHRLFPEKVAT	not soluble
MNIFAILNHMGVFFKEEPVRQLHAALEKAGYEVVYPVDDKDLIKMIEMNPRICGVLFDWDKYSLELCERISQINEKLPVHAFANEQSTLDISLTDLRLNVSFFEYALGMADDI	not soluble
MNIFTEAAKLEEQNCPFAMAQIVDSRGSTPRHSAQMLVRADGSIVGTIGGGMVERKVIEESLQALQERKPRLFHGRMARNGADAVGSDCGGAMSVFISVHGMRPRLVLIGAGHVNRAIAQSAALLGFDIAVADIYRESLNPELFPPSTTLLHAESFGAAVEALDIRPDNFVLIATNNQDREALDKLIEQPIAWLGLLASRRKVQLFLRQLREKGVAEEHIARLHAPVGYNIGAETPQEIAISVLAEILQVKNNAPGGLMMKPSHPSGHQLVVIRGAGDIASGVALRLYHAGFKVIMLEVEKPTVIRCTVAFAQAVFDGEMTVEGVTARLATSSAEAMKLTERGFIPVMVDPACSLLDELKPLCVVDAILAKQNLGTRADMAPVTIALGPGFTAGKDCHAVIETNRGHWLGQVIYSGCAQENTGVPGNIMGHTTRRVIRAPAAGIMRSNVKLGDLVKEGDVIAWIGEHEIKAPLTGMVRGLLNDGLAVVGGFKIGDIDPRGETADFTSVSDKARAIGGGVLEALMMLMHQGVKATKEVLEVALEHHHHHH	not soluble
MNIFVNMRIMVAHTPDPDDAFMFYGMFEGKIRTSNQYEQVIKDIETLNKESKEGKYEVTAISANGYVQVRDLYKLTRSGASFGISYGPIVVARNEIDLSKSRMGVPGFMTSSYLLYRMFGPEAKEYVEIKFDEIPDAILTGKVDAGILIHDEQLTFQKRGLKEVFDIYSAWKSYAGNLPIPLGFNAIRKDLDEDTVNKFLYDFERSIRYAMAHEEEAVKYAMKYARYTDLDLERRFVRMYVNELSIDFGDTGRKALELYYNRAAGKGLIPPFKPEIV	not soluble
MNIIILAGGEGKRMGGVDKAAVAVDGRTLLDILLSQLDPEDDVVVVSPAIIDGITTVCEEPPLGGPVAGIEAGLNSFEHAHEFTAILAVDAPYSAAMLPLLQAQIGKADVAVTLAADGWVQPLCALWRSGSLEAVIHSLGETRNRPAKALLKQAGHIVEVGGDGTEKDYDTVAELEVLGNVTLPKAHLEHHHHHH	not soluble
MNIIKANVAAPDARVAITIARFNQFINDSLLDGAVDALTRIGQVKDDNITVVWVPGAYELPLATEALAKSGKYDAVVALGTVIRGGTAHFEYVAGGASNGLASVAQDSGVPVAFGVLTTESIEQAIERAGTKAGNKGAEAALTALEMINVLKAIKA	not soluble
MNIIKGNIASPLGFSADGLHAGFKKKKLDFGWIVSEVPANVAGVFTTNKVIAAPLKLTKNSIEKSGKMQAIVVNSGIANSCTGKQGEKDAFKMQQLAANKLQIQPEYVGVASTGVIGKVMPMSILKNGFSKLVKNGNADDFAKAILTTDTHTKTCVVNEEFGSDTVTMAGVAKGSGMIHPNLATMLAFITCDANISSQTLQQALKDVVEVTFNQITVDGDTSTNDMVLVMSNGCTNNNEIKKDSEDYYKFKQMLLYIMTDLAKSIARDGEGASKLIEVTVKGAKESSAARMIAKSVVGSSLVKTAIFGEDPNWGRIIAAAGYAKTYFDINQVDIFIGRIPVLIRSSPVKYDKEEIQEIMSAEEISIQLDLHQGNCEGQAWGCDLSYDYVKINALYTTLEHHHHHH	not soluble
MNIISQNTAFGGMQGVFSHQSETLKSEMTFAVYVPPKAIHEPCPVVWYLSGLTCTHANVMEKGEYRRMASELGLVVVCPDTSPRGNDVPDELTNWQMGKGAGFYLDATEEPWSEHYQMYSYVTEELPALIGQHFRADMSRQSIFGHSMGGHGAMTIALKNPERFKSCSAFAPIVAPSSADWSEPALEKYLGADRAAWRRYDACSLVEDGARFPEFLIDQGKADSFLEKGLRPWLFEEAIKGTDIGLTLRMHDRYDHSYYFISTFMDDHLKWHAERLG	not soluble
MNIPMYIVDAFTDRPFAGNPAAVCLLPQPVGDEWMQRVAAEMNLSETAFLVPHEGGYRLRWFTPKAEVDLCGHATLASAHVLWERGERRADEAIAFFTNSGVLTAINNDGWIRLDFPNETPVRVESPPAALVGALPAEPLFIGRNRFDYLVEIGSEQEVRRLTPDFRLLQEVDARGIIVTSRSAAEEMDFVSRAFFPALGVPEDPVTGSAHCCLGPYWADKLGKTTLVGYQASARGGIVRVMVSGERVQLEGKAVTVLKGDLAAEAAFGLQPI	not soluble
MNITKAFCLSIALLGASNMQAITNSDFVIQQDNTKINNYQTNRPETSKRLFVSQAVEQQIAHIKQLLTNARLAWMFENCFPNTLDTTVHFDGKDDTFVYTGDIHAMWLRDSGAQVWPYVQLANKDAELKKMLAGVIKRQFKCINIDPYANAFNMNSEGGEWMSDLTDMKPELHERKWEIDSLCYPIRLAYHYWKTTGDASIFSDEWLTAIAKVLKTFKEQQRKEDPKGPYRFQRKTERALDTMTNDGWGNPVKPVGLIASAFRPSDDATTFQFLVPSNFFAVTSLRKAAEILNTVNKKPDLAKECTTLSNEVETALKKYAVYNHPKYGKIYAFEVDGFGNQLLMDDANVPSLIALPYLGDVKVNDPIYQNTRKFVWSEDNPYFFKGTAGEGIGGPHIGYDMIWPMSIMMKAFTSQNDAEIKTCIKMLMDTDAGTGFMHESFHKNDPKNFTRSWFAWQNTLFGELILKLVNEGKVDLLNSIQLEHHHHHH	not soluble
MNIVIAAVGGQGAVLTSKILGTLAQNLGKDVKVSEVHGMSQRGGSVVAYVKFGDKVYSPVVEKGTADIVLAFEMLEGARYVDYLKENGKLVVNTQRIDPMPVITGDMEYPADLGEKLEELNIGYIPVDALSLAKNAGTIKAVNVALIGVLAQNSNIKKEEWIKAIKDTVPEKFLELNLKAFELGYNLE	soluble
MNKKIVMSFLAATVVTISGCASFADMAGADSATLNASAAQGFSKMTTEARQKGQLDTSSNTYRRINTVMQRMIPYANQMNQTGQPFQWQLAVIKSDTVNAYVAPGGKVVFYTGIVNKLNLSDAEIAAVMGHEMTHALEEHAKSKIGAEALTGLALNIGKAYAGDSIGQAGSAALDLGSQVGVGLPYSRNLESRADYGGLMLMAKAGYNPQAAITLWEKMNRMDGAGGPSFLSTHPSNNQRIQDMRKNLPAAMAVYNNRRLEHHHHHH	not soluble
MNKQEVILKVQECAAWWILERQSKLTKLMSETMSINPFMTPFIFDYHSLNDFDELVEAIIAKHLMTGHDTGFGKLIDEKILPRVFGAYKLDKSYRAANEPFIHPCFDEIDHVIQRDDGRIELLSLKAGKWTIQLTMAVQLNKAFHEIINNYPGVADNIVVGVFYGNSHGLTDKYRILRGINTGANHNVIDIRDKVHVYAGKEFWSWLNNGEAETQHWVLEGIERAVKEADIKEKNKDLIEKFKEHVAKKYNEQVLNADGTAQWHKLLEMINE	soluble
MNKTIIAERFSKAISTYPREANVQRQIANKMIRLLQKHIPSPCPKVIEFGCGTGIYSRMLLRTLRPEELLLNDLCPEMRYCCEDLLREKQVSFLSGDAETISFPDKSTLITSCSALQWFDSPEEFFKRCNTLLHSQGYFAFSTFGKKNMKEIRELTGKGLPYRSREELEAALSLHFDILYSEEELIPLSFEDPMKVLYHLKQTGVNGLSAQSSLYPKHEKQTWTRRDLQHFCERYTQEFTQGTSVSLTYHPIYIIAKKKKV	soluble
MNKTNQIVDLLTNKQNNSIQRRDNLVFVKNEQEFKDILDSTISLSNVYDPLLGNGCEQEKIKELTILNNSVDISKIEEYTKTLESKVDDLYNNVSNQLIQDYQKNENTSANNIIMKNEELLNSHLKEVEKICEQLIDEWKIEILGEVNFKFQQQLIEIDQKQEHKLKVKSLINEDSFLTKRQVKNKNKILTEFEKHRSQITQNYLNKRSDILKKEYDELLKDDKLFELSSGDNWNNFKKITLFISNEIGIINDLEDLLNHQELIRTRNYTKRAILNQHHINGHFKDEKKYLKSLYDLRVKFMYGLGSEIVILKFLIEHYKKLNSLRLRLETLNHPLSNYAVYFDILNRIEKQTQLLAKIETLKYDNYDFNADVILDDLESNITKINEIKHNSNVLNKTKVIKTIIEPKYELELISKDDKVDGVKVYVNDQEILSKLEHHHHHH	not soluble
MNKTYMLDTCICSFIMREQPEAVLKRLEQAVLRGQRIVVSAITYSEMRFGATGPKASPRHVELVDAFCARLDAILPWDRAAVDATTEIKVALRMAGTPIGPNDTAIAGHAIAAGAVLVTNNTREFERVPGLVLEDWVR	not soluble
MNLEPPKAECRSATRVMGGPCTPRKGPPKCKQRQTRQCKSKPPKKGVQGCGDDIPGMEGCGTDITVICPWEACNHCELHELAQYGIC	soluble
MNLFQNLALKYSHTMMEKSLQKGFNVELLKQPEEKIPKQDKSYMLYAHVPFCHTFCPYCSFHKYYYDENLAKVYFQNLREEIKIMKNKGFDFTSMYVGGGTTLIDEEELLKTLELCKKLFNIKEISCESDPNHIDPNKLSMFKGIIDRLSCGIQSFDDETLKKVARYNKFGSSKELQEKISKALGILPIFSIDLIFNLPGQNEKQLLNDLEIAKNLAPQQITTYPLMKSNLTKDNIAKSLGVSIKDNEFTYYQIIREFFKDYTQNNGWSFSLEKNKLNDEYVSSHHEYLGVGSGAFSFLDGELLINAFNLNDYAKFIQEKQNANIAKACFDKKEIIKYVFLTGIFSGKIEIDKFNKTLNCNLEKELFIELLGLKTSGAIIKDQNALIATEFGQYLFVVLMKDFYTGMDLVRAVFRDDKRLKNKDYIDIMKENIDPLNSASMEFKAETN	not soluble
